B1: endostatin: tumor associated angiogenesis inhibitor used as comparator (protein, UniProt P39060 1572-1754, looked up)
Endostatin: HSHRDFQPVLHLVALNSPLSGGMRGIRGADFQCFQQARAVGLAGTFRAFLSSRLQDLYSIVRRADRAAVPIVNLKDELLFPSWEALFSGSEGPLKPGARIFSFDGKDVLRHPTWPQKSVWHGSDPNGRRLTESYCETWRTEAPSATGQASSLLGGRLLGQSAASCHHAYIVLCIENSFMTASK
modifications: Endostatin
B2: Tumstatin: NC1 domain of the α3 chain of type IV collagen, residues 1-244 (SEQ ID NO:10) (protein, listed as Homo sapiens)
chain: GLKGKRGDSGSPATWTTRGFVFTRHSQTTAIPSCPEGTVPLYSGFSFLFVQGNQRAHGQDLGTLGSCLQRFTTMPFLFCNVNDVCNFASRNDYSYWLSTPALMPMNMAPITGRALEPYISRCTVCEGPAIAIAVHSQTTDIPPCPHGWISLWKGFSFIMFTSAGSEGTGQALASPGSCLEEFRASPFLECHGRGTCNYYSNSYSFWLASLNPERMFRKPIPSTVKAGELEKIISRCQVCMKKRH
B3: Tum-1: residues 54 to 244 of Tumstatin, lacking the N-terminal 53 amino acids (SEQ ID NO:22) (protein)
chain: QRAHGQDLGTLGSCLQRFTTMPFLFCNVNDVCNFASRNDYSYWLSTPALMPMNMAPITGRALEPYISRCTVCEGPAIAIAVHSQTTDIPPCPHGWISLWKGFSFIMFTSAGSEGTGQALASPGSCLEEFRASPFLECHGRGTCNYYSNSYSFWLASLNPERMFRKPIPSTVKAGELEKIISRCQVCMKKRH
modifications: Tum-1 (Tumstatin N-53) (amino acids 54-244 of SEQ ID NO10)
B4: Tumstatin-44-131: residues 44 to 131 of full-length Tumstatin (SEQ ID NO:33) (protein)
chain: FSFLFVQGNQRAHGQDLGTLGSCLQRFTTMPFLFCNVNDVCNFASRNDYSYWLSTPALMPMNMAPITGRALEPYISRCTVCEGPAIAI
modifications: Tumstatin-45-132 (amino acids 45-132 of SEQ ID NO10)
B5: Canstatin: NC1 domain of the α2 chain of Type IV collagen (SEQ ID NO:6) (protein, listed as Homo sapiens)
chain: VSIGYLLVKHSQTDQEPMCPVGMNKLWSGYSLLYFEGQEKAHNQDLGLAGSCLARFSTMPFLYCNPGDVCYYASRNDKSYWLSTTAPLPMMPVAEDEIKPYISRCSVCEAPAIAIAVHSQDVSIPHCPAGWRSLWIGYSFLMHTAAGDEGGGQSLVSPGSCLEDFRATPFIECNGGRGTCHYYANKYSFWLTTIPEQSFQGSPSADTLKAGLIRTHISRCQVCMKNL
B6: Can-1: N-terminal 114 amino acids of full-length Canstatin (protein, listed as Homo sapiens)
chain: VSIGYLLVKHSQTDQEPMCPVGMNKLWSGYSLLYFEGQEKAHNQDLGLAGSCLARFSTMPFLYCNPGDVCYYASRNDKSYWLSTTAPLPMMPVAEDEIKPYISRCSVCEAPAIA

Test system: C-PAE cells
Assay: Annexin V-FITC apoptosis assay
Type: cell-based, bovine
Details: for IC50, induction of endothelial cell apoptosis: 10% FBS; for Apo (Annexin V-FITC assay): Table 4
Protocol: Fifty thousand C-PAE cells were added to each well of a 6-well tissue culture plate in DMEM supplemented with 10% FBS for 12 hours. Fresh medium together and either 5 μg/ml Arresten or 40 ng/ml TNFα (positive control) was added at 2, 4 and 6 hour time points. Control wells received an equal of volume of PBS. Detached cells and adherent cells were pooled together and centrifuged at 1500 rpm. Cells were washed with binding buffer (Clontech, Palo Alto, Calif., USA), and phosphatidyl-serine (PS) externalization, an indicator of apoptosis, was measured by labeling with FITC-labeled annexin V (Clontech) according to manufacturer's instructions. Annexin-FITC labeled cells were counted using a FACStar Plus flow cytometer (Becton-Dickinson, Waltham, Mass., USA). For each treatment, 10,000 cells were counted and stored. […] Relative to controls, the percentage of annexin-V-stained (apoptotic) cells increased to about 27% at 2 hours, and near 20% at 4 and 6 hours for the positive control, TNFα. For Arresten-treated cells, the percentage of apoptotic cells was about 18% at 2 hours, and about 23% at 4 and 6 hours.
Annexin V-FITC Labeling. In order to establish apoptosis as the potential mode of action for Canstatin, Annexin V-FITC was used to label externalized phosphatidylserine (PS), to assess apoptotic cells. 0.5×10^6 C-PAE cells, PC-3, 786-O and HEK 293 cells were added to each well of a 6 well tissue culture plate in 10% FBS supplemented DMEM (BioWhittaker, Walkersville, Md., USA) overnight. The next day, fresh medium was added to all wells together with 40 ng/ml TNF-α (positive control) or 15 μg/ml Canstatin. Control cells received an equal volume of PBS. After 24 hours of treatment, medium containing detached cells was collected and attached cells were trypsinized and combined with detached cells and centrifuged at 3,000×g. Cells were then washed and phosphatidyl-serine externalization (an early apoptotic indicator) was measured by labeling with FITC-labeled annexin V (Clontech, Palo Alto, Calif., USA) according to the manufacturer's instructions. Annexin V-FITC-labeled cells were counted using a FAC Star Plus flow cytometer (Becton-Dickenson, Waltham, Mass., USA). For each treatment 15,000 cells were counted and stored in listmode.
C-PAE cells (0.5×10^6 per well) were seeded onto a 6-well plate in 10% FCS supplemented DMEM. The next day, fresh medium containing 10% FCS was added with either 80 ng/ml of TNF-α (positive control) or Tumstatin ranging from 0.02 to 20 μg/ml. Control cells received an equal volume of PBS. After 18 hours of treatment, medium containing floating cells was collected, and attached cells were trypsinized and centrifuged together with floating cells at 3,000×g. The cells were then washed in PBS and resuspended in binding buffer (10 mM HEPES/NaOH, pH 7.4, 140 mM NaCl, 2.5 mM CaCl2). Annexin V-FITC (Clontech, Palo Alto, Calif., USA) was added to a final concentration of 150 ng/ml, and the cells were incubated in the darkness for 10 minutes. The cells were washed again in PBS and resuspended in binding buffer. Annexin V-FITC labeled cells were counted using a FACStar Plus flow cytometer (Becton-Dickinson, Waltham, Mass., USA). For each treatment, 15,000 cells were counted and stored in listmode.
Apoptosis was measured by Annexin V-FITC assay, using the ApoAlert kit (Clontech, Palo Alto, Calif., USA). Propidium iodide was used to stain the nuclei of cells that had died by ways other than apoptosis.
The assay was performed as described above, by treating C-PAE cells with Tumstatin-44-131 for 18 hours. Control cells received PBS.

Molecule	IC50, induction of endothelial cell apoptosis	Apo (Annexin V-FITC assay)	induction of apoptosis (concentrations above 1 μg/ml)	also measured
B1	no activity	–	–	–
B2	–	10 µg	–	annexin fluorescence (2 μg/ml, 18 hours): mild shift; annexin fluorescence (20 μg/ml, 18 hours): distinct shift of annexin fluorescence peak; annexin fluorescence (concentrations below 0.2 μg/ml): did not demonstrate any annexin V positivity
B3	about 5 μg/ml	5 µg	–	–
B4	–	active	–	annexin fluorescence (5 μg/ml Tumstatin-44-131, 18 hours): distinct shift of the fluorescence intensity peak
B5	–	–	induced apoptosis	induction of apoptosis (15 μg/ml Canstatin, 24 hours): specifically induce apoptosis of endothelial cells
B6	–	–	induced apoptosis	induction of apoptosis (concentrations of less than 1 μg/ml): most potent in inducing apoptosis
